The target in this assay is T1, human TIGIT-mFc (human; mouse, UniProt Q495A1 22-141, limits assumed).
T1 construct: also called antigen TIGIT-mFc; TIGIT-mnFc
As to the kind of experiment: BLI (Fortebio), TIGIT-mFc on AMC sensor, 37 C, 1:1 fit. Here is the method: The sample dilution buffer was PBS (0.02% Tween-20, 0.1% BSA, pH 7.4). TIGIT-mFc was immobilized on an AMC sensor at a concentration of […] for 50 s, and the sensor was equilibrated in the buffer for 60 s. The TIGIT-mFc immobilized on the sensor was allowed to bind to the antibody at concentrations of 0.06-5 nM (three-fold dilutions) for 120 s, and the protein was dissociated in the buffer for 300 s. The sensor was regenerated in 10 mM glycine solution (pH=1.7). The detection temperature was 37° C., the detection frequency was 0.3 Hz, and the sample plate shaking rate was 1000 rpm. The data were analyzed by 1:1 model fitting to obtain affinity constants.
Background: In BLI a coated tip is dipped into the sample, and binding shifts an interference pattern.

T1 sequence (Q495A1 other isoform, or with tags, fused parts or gaps limits assumed): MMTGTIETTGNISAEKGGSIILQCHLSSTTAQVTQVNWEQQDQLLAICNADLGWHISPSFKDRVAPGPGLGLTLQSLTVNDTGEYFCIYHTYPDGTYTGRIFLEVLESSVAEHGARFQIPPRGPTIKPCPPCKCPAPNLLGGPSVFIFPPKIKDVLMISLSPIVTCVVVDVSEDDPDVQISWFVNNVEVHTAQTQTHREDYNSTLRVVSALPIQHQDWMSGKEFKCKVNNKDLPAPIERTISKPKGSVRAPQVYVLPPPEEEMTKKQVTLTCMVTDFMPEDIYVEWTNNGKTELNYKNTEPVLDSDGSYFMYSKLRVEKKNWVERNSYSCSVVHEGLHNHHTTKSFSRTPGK

B1: RG6058 (antibody, V domains shown)
VH: EVQLQQSGPGLVKPSQTLSLTCAISGDSVSSNSAAWNWIRQSPSRGLEWLGKTYYRFKWYSDYAVSVKGRITINPDTSKNQFSLQLNSVTPEDTAVFYCTRESTTYDLLAGPFDYWGQGTLVTVSS
VL: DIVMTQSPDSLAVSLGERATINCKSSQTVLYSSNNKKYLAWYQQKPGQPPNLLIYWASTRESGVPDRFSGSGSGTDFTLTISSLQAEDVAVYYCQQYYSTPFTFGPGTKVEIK
Consider B1, for which the “Maximum signal height of analyte (nm)” value turned out to be 0.16 nm and the “S E(kdis)” value was 3.46e-05 s⁻¹.
